In the supplement of paper PMC6757056:
± gives the standard deviation of the averaged measurements.

B1: library; a variant is named by its letters at N, in order (parent)
chain: GCUGUCACCGGUGUAUUACCCUAGUGGUCGACCGGUCUGAUGAGUCUNNNNNNAGACGAAACAGC

Key:
hypoxanthine [1] = variants of: B1; assay: normalized RNA/DNA level with ligand (relative to sTRSVctl = 100) (log10 (% of sTRSVctl)); ligand: hypoxanthine (xanthine aptamer); higher = less ribozyme self-cleavage, higher mRNA level; conditions: ligand concentration (+) RNA-Seq: 5 mM, HEK293T, reporter: mCherry (pCS4076), ligand present: yes
In short: (§1)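 Library plasmids carrying ribozyme switches linked to mCherry, or to eGFP in some ligand experiments, were transfected into HEK293T at 4 µg per 6-well well, with any ligand added 1 h earlier. Seventy-two hours on, total RNA was extracted with EDTA and reverse-transcribed, amplified, barcoded and sequenced. RNA level was RNA over DNA reads normalized to a spiked-in non-cleaving sequence or to the top sequences, then scaled and log-transformed. The top set was 25 sequences, the transform was ×100 and log10, and sequences needed ≥100 DNA reads.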

hypoxanthine [2] = variants of: B1; assay: normalized RNA/DNA level without ligand (relative to sTRSVctl = 100) (log10 (% of sTRSVctl)); ligand: hypoxanthine (xanthine aptamer); higher = less ribozyme self-cleavage, higher mRNA level; conditions: HEK293T, reporter: mCherry (pCS4076), ligand present: no
In short: as §1

Row | Variant | normalized RNA/DNA level with ligand (log10) (hypoxanthine [1]) | normalized RNA/DNA level without ligand (log10) (hypoxanthine [2])
1 | UCGUGU | 1.82 ± 0.059 | 1.33 ± 0.041
2 | CCGUUA | 1.94 ± 0.021 | 1.75 ± 0.094
3 | UCGUUA | 1.961 ± 0.0027 | 1.736 ± 0.0095
4 | ACGUUA | 1.867 ± 0.015 | 1.62 ± 0.095
5 | CCGUUC | 1.96 ± 0.079 | 1.82 ± 0.099
6 | GCGUUC | 1.93 ± 0.059 | 1.58 ± 0.11
7 | UCGUUC | 2 ± 0.031 | 1.95 ± 0.086
8 | ACGUUC | 1.94 ± 0.039 | 1.79 ± 0.024
9 | CCGUUG | 1.88 ± 0.045 | 1.589 ± 0.0096
10 | UCGUUG | 1.98 ± 0.095 | 1.785 ± 0.01
11 | CCGUUU | 1.95 ± 0.028 | 1.86 ± 0.069
12 | GCGUUU | 1.965 ± 0.002 | 1.74 ± 0.11
13 | UCGUUU | 1.96 ± 0.042 | 1.8 ± 0.01
14 | ACGUUU | 1.84 ± 0.022 | 1.53 ± 0.035
15 | GCUAAA | 1.95 ± 0.043 | 1.77 ± 0.023
16 | CCUAAC | 1.93 ± 0.042 | 1.825 ± 0.0078
17 | UCUAAC | 1.9378 ± 0.00086 | 1.85 ± 0.013
18 | CCUAAG | 1.91 ± 0.05 | 1.66 ± 0.013
19 | CCUAAU | 1.94 ± 0.12 | 1.86 ± 0.1
20 | GCUACA | 1.95 ± 0.02 | 1.85 ± 0.025
21 | UCUACA | 1.94 ± 0.057 | 1.846 ± 0.017
22 | ACUACA | 1.92 ± 0.0088 | 1.841 ± 0.014
23 | CCUACC | 1.937 ± 0.0065 | 1.86 ± 0.049
24 | UCUACC | 1.96 ± 0.029 | 1.913 ± 0.0037

Row | Variant | normalized RNA/DNA level with ligand (log10) (hypoxanthine [1]) | normalized RNA/DNA level without ligand (log10) (hypoxanthine [2])
25 | ACUACC | 2 ± 0.03 | 1.9024 ± 0.00086
26 | CCUACG | 1.94 ± 0.073 | 1.9 ± 0.041
27 | UCUACG | 1.9 ± 0.07 | 1.733 ± 0.011
28 | CCUACU | 1.98 ± 0.13 | 1.96 ± 0.021
29 | GCUACU | 1.95 ± 0.059 | 1.89 ± 0.026
30 | UCUACU | 1.97 ± 0.067 | 1.917 ± 0.014
31 | CCUAGA | 1.962 ± 0.016 | 1.84 ± 0.057
32 | GCUAGA | 1.92 ± 0.031 | 1.71 ± 0.029
33 | CCUAGC | 1.91 ± 0.08 | 1.842 ± 0.0069
34 | GCUAGC | 1.89 ± 0.1 | 1.79 ± 0.079
35 | ACUAGC | 1.881 ± 0.0075 | 1.79 ± 0.075
36 | CCUAGG | 1.86 ± 0.055 | 1.77 ± 0.046
37 | GCUAGG | 1.83 ± 0.039 | 1.48 ± 0.02
38 | UCUAGG | 1.96 ± 0.072 | 1.92 ± 0.089
39 | CCUAGU | 1.919 ± 0.0097 | 1.872 ± 0.013
40 | GCUAGU | 1.92 ± 0.11 | 1.722 ± 0.0072
41 | UCUAGU | 1.99 ± 0.051 | 1.68 ± 0.019
42 | ACUAGU | 1.88 ± 0.052 | 1.71 ± 0.07
43 | GCUAUA | 1.93 ± 0.03 | 1.89 ± 0.034
44 | UCUAUA | 1.893 ± 0.016 | 1.858 ± 0.013
45 | CCUAUC | 2.03 ± 0.028 | 2.04 ± 0.03
46 | GCUAUC | 1.966 ± 0.016 | 1.84 ± 0.058
47 | ACUAUC | 1.98 ± 0.03 | 1.95 ± 0.046
48 | CCUAUG | 1.92 ± 0.13 | 1.86 ± 0.083

Row | Variant | normalized RNA/DNA level with ligand (log10) (hypoxanthine [1]) | normalized RNA/DNA level without ligand (log10) (hypoxanthine [2])
49 | ACUAUG | 1.89 ± 0.021 | 1.48 ± 0.015
50 | CCUAUU | 1.95 ± 0.063 | 1.9 ± 0.039
51 | UCUAUU | 1.93 ± 0.057 | 1.86 ± 0.023
52 | ACUAUU | 1.928 ± 0.012 | 1.82 ± 0.03
53 | CCUCAA | 1.929 ± 0.0046 | 1.84 ± 0.025
54 | UCUCAA | 1.92 ± 0.055 | 1.679 ± 0.0047
55 | ACUCAA | 1.92 ± 0.073 | 1.748 ± 0.0042
56 | CCUCAC | 1.99 ± 0.027 | 2.07 ± 0.14
57 | GCUCAC | 1.94 ± 0.08 | 1.84 ± 0.053
58 | UCUCAC | 2 ± 0.055 | 1.77 ± 0.047
59 | ACUCAC | 1.994 ± 0.0082 | 1.97 ± 0.013
60 | GCUCAG | 1.86 ± 0.019 | 1.31 ± 0.057
61 | ACUCAG | 1.89 ± 0.04 | 1.529 ± 0.0011
62 | CCUCAU | 1.97 ± 0.078 | 1.87 ± 0.02
63 | GCUCAU | 1.95 ± 0.026 | 1.801 ± 0.018
64 | UCUCAU | 1.975 ± 0.012 | 1.887 ± 0.01
65 | CCUCCA | 1.94 ± 0.026 | 1.95 ± 0.067
66 | GCUCCA | 1.936 ± 0.018 | 1.81 ± 0.025
67 | UCUCCA | 1.93 ± 0.069 | 1.77 ± 0.019
68 | ACUCCA | 2.014 ± 0.018 | 1.91 ± 0.023
69 | GCUCCC | 1.93 ± 0.043 | 1.84 ± 0.02
70 | UCUCCC | 1.98 ± 0.14 | 1.77 ± 0.022
71 | GCUCCG | 1.88 ± 0.12 | 1.38 ± 0.075
72 | UCUCCG | 1.85 ± 0.036 | 1.43 ± 0.1

Row | Variant | normalized RNA/DNA level with ligand (log10) (hypoxanthine [1]) | normalized RNA/DNA level without ligand (log10) (hypoxanthine [2])
73 | CCUCCU | 1.95 ± 0.074 | 1.96 ± 0.026
74 | GCUCCU | 2.027 ± 0.006 | 1.981 ± 0.015
75 | UCUCCU | 1.99 ± 0.059 | 1.87 ± 0.028
76 | ACUCCU | 1.965 ± 0.011 | 1.905 ± 0.018
77 | UCUCGA | 1.93 ± 0.057 | 1.832 ± 0.013
78 | CCUCGC | 1.92 ± 0.054 | 1.92 ± 0.029
79 | UCUCGC | 1.99 ± 0.022 | 1.757 ± 0.0053
80 | ACUCGC | 1.99 ± 0.041 | 1.93 ± 0.032
81 | UCUCGG | 1.92 ± 0.032 | 1.7302 ± 0.00058
82 | CCUCGU | 1.98 ± 0.026 | 1.87 ± 0.031
83 | GCUCGU | 1.96 ± 0.042 | 1.83 ± 0.048
84 | UCUCGU | 1.96 ± 0.053 | 1.83 ± 0.045
85 | ACUCGU | 1.95 ± 0.033 | 1.89 ± 0.025
86 | CCUCUA | 1.98 ± 0.05 | 1.926 ± 0.015
87 | GCUCUA | 1.941 ± 0.0064 | 1.79 ± 0.035
88 | GCUCUC | 1.98 ± 0.021 | 1.89 ± 0.079
89 | UCUCUC | 2.025 ± 0.016 | 1.94 ± 0.09
90 | ACUCUC | 2.06 ± 0.025 | 2.014 ± 0.005
91 | CCUCUG | 1.96 ± 0.038 | 1.98 ± 0.035
92 | CCUCUU | 2.011 ± 0.018 | 1.9823 ± 0.00045
93 | GCUCUU | 1.97 ± 0.052 | 1.91 ± 0.037
94 | UCUCUU | 1.94 ± 0.043 | 1.814 ± 0.017
95 | CCUGAA | 1.98 ± 0.078 | 1.78 ± 0.075
96 | CCUGAC | 1.92 ± 0.1 | 1.83 ± 0.035

Row | Variant | normalized RNA/DNA level with ligand (log10) (hypoxanthine [1]) | normalized RNA/DNA level without ligand (log10) (hypoxanthine [2])
97 | GCUGAC | 1.9 ± 0.034 | 1.63 ± 0.034
98 | UCUGAC | 1.99 ± 0.031 | 1.8115 ± 0.00067
99 | GCUGAG | 1.85 ± 0.083 | 1.347 ± 0.012
100 | UCUGAG | 1.927 ± 0.0088 | 1.58 ± 0.035
101 | CCUGAU | 1.909 ± 0.004 | 1.821 ± 0.013
102 | UCUGAU | 1.94 ± 0.066 | 1.77 ± 0.096
103 | CCUGCA | 2.011 ± 0.0089 | 1.9 ± 0.041
104 | GCUGCA | 1.98 ± 0.021 | 1.83 ± 0.034
105 | UCUGCA | 1.92 ± 0.024 | 1.88 ± 0.059
106 | CCUGCC | 2.04 ± 0.026 | 2.01 ± 0.023
107 | GCUGCC | 1.96 ± 0.15 | 1.83 ± 0.093
108 | UCUGCC | 2.04 ± 0.021 | 1.89 ± 0.022
109 | ACUGCC | 1.9853 ± 0.0019 | 1.89 ± 0.065
110 | UCUGCG | 2.01 ± 0.08 | 1.73 ± 0.015
111 | CCUGCU | 2.02 ± 0.049 | 1.98 ± 0.08
112 | GCUGCU | 1.92 ± 0.076 | 1.884 ± 0.013
113 | UCUGCU | 1.968 ± 0.0085 | 1.924 ± 0.0035
114 | ACUGCU | 1.91 ± 0.033 | 1.86 ± 0.037
115 | CCUGGA | 1.996 ± 0.0047 | 1.88 ± 0.02
116 | GCUGGA | 1.904 ± 0.011 | 1.8 ± 0.074
